In assay [1] the target is LgBiT-BOK-TMD (transmembrane domain of BOK as NanoBiT fusion) (UniProt Q9UMX3). As to the kind of experiment: split reporter (BiFC, NanoBiT); NanoBiT split luciferase in living HEK293FT cells; LgBiT-TMD and SmBiT-TMD plasmids transfected 1:1, 24 h; cells in Opti-MEM, 5 uM coelenterazine-h, luminescence 30 min after substrate; absolute RLU (Fig. 1C) or normalized to mTurquoise2 fluorescence and set relative to BAX-TMD/BAX-TMD = 1 (Fig. 1F, 6C).

Assay [2] shares this target. Nature of the assay: split reporter (BiFC, NanoBiT); NanoBiT split luciferase in living MCF-7 cells; transfected 24 h; luminescence relative to the positive control BAX-TMD/BAX-TMD.
Assay [3] addresses BAX-TMD (transmembrane domain of BAX) as NanoBiT fusion (UniProt Q07812). Nature of the assay: split reporter (BiFC, NanoBiT); NanoBiT split luciferase in living HEK293FT cells; LgBiT-TMD and SmBiT-TMD plasmids transfected 1:1, 24 h; cells in Opti-MEM, 5 uM coelenterazine-h, luminescence 30 min after substrate; absolute RLU (Fig. 1C) or normalized to mTurquoise2 fluorescence and set relative to BAX-TMD/BAX-TMD = 1 (Fig. 1F, 6C).

Chain of UniProt Q9UMX3 (Q9UMX3 whole entry, the tested form may be a part): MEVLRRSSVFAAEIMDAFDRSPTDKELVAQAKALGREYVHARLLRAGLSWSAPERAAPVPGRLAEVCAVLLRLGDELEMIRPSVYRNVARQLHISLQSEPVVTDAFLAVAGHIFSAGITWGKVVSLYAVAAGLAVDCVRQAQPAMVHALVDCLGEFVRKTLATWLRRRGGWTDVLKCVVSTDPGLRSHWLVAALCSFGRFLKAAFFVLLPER

Regarding “SmBiT-BCL-2-TMD (transmembrane domain of BCL-2 as NanoBiT fusion) (from UniProt P10415 1-239) (domain or fragment)”, in assay [1], the normalized luminescence as percent of the positive control (BAX-/BAX-TMD) (% of the positive control) amounted to 46 and the relative normalized luminescence (BAX-TMD/BAX-TMD = 1) (relative to the positive control) came to 0.47. The substance also registered a normalized luminescence as percent of the positive control (BAX-TMD/BAX-TMD) (% of the positive control) in assay [2] of 30.
In assay [1], “SmBiT-BCL-2-TMD L223A V226A I230A (from UniProt P10415 1-239) (domain or fragment)” registered a relative normalized luminescence (BAX-TMD/BAX-TMD = 1) (relative to the positive control) of 0.13.
On to “BAX-TMD (transmembrane domain of BAX) as NanoBiT fusion (from UniProt Q07812 1-192) (domain or fragment)”, for which the luminescence in assay [3] was found to be 16600 RLU.
Regarding “SmBiT-BCL-2-TMD I230A (from UniProt P10415 1-239) (domain or fragment)”, the relative normalized luminescence (BAX-TMD/BAX-TMD = 1) (relative to the positive control) in assay [1] amounted to 0.21.
The same measure, in the same setting: next, “SmBiT-BCL-2-TMD L223A V226A (from UniProt P10415 1-239) (domain or fragment)”: 0.21.
The same measure, in the same setting: next, “SmBiT-BCL-2-TMD V226A I230A (from UniProt P10415 1-239) (domain or fragment)”: 0.21.

The values above are taken from PMC11387410.
